# According to patent publication US20160159921A1:
# Key:
# FcγRIIb = FcγRIIb (UniProt P31994); test: SPR (ProteOn XPR36), antibody captured on immobilized HER-2, FcγR as analyte, 1:1 Langmuir fit
# FcγRIIIa (F) variant = FcγRIIIa (F) variant (UniProt P08637); test: as above
# UniProt P08637, sequence (P08637 17-208 limits assumed, change not shown): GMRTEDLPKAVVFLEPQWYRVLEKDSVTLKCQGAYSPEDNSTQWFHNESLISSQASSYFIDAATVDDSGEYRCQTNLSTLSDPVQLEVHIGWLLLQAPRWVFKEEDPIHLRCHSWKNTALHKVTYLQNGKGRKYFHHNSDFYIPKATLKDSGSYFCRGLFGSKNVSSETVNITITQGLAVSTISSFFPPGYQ
# UniProt P31994, sequence (P31994 43-217 limits assumed): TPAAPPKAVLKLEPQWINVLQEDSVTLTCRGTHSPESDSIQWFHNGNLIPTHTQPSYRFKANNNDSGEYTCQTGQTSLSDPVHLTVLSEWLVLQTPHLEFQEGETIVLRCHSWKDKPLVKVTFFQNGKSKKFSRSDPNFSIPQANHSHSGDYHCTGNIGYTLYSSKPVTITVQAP
substance,measurement,setting,value
Trastuzumab variant G237F/S298A/A330L/I332E (antibody),Kd,FcγRIIb,7.63 µM
same,Kd,FcγRIIIa (F) variant,0.429 µM
